In patent US20250388664A1 (BIOARCTIC, published 2025):
Values belong to the binder of their own block, whether it stands above or below them.

How the values were obtained:
[1] = molecular target: T1, truncated hTfR1 of SEQ ID NO:122 (human, UniProt P02786 122-760); test: SPR, FLAG-captured TfR1, bispecific injected, 1:1 fit
T1 construct: also called human TfR1; Human TfR1
Experimental: (§1) Binding of the purified bispecific binding molecules produced in Example 47 to human and cynomolgus TfR1 was evaluated using SPR on a Biacore 8K instrument (Cytiva). […] The interaction was measured using the single cycle kinetics method with a contact time of 120 s at a flow rate of 30 μl/min followed by a dissociation time of 600 s. Regeneration of the surface between cycles was done by injecting 10 mM glycine-HCl, pH 1.7. The binding data was fitted to a 1:1 interaction model. The tested molecules were diluted in HBS-EP+ (Cytiva, #BR100669). Experiments were performed at 25° C.

[2] = molecular target: T2, truncated cTfR1 of SEQ ID NO:123 (cynomolgus monkey, UniProt Q5RDH6 122-760 (Pongo abelii entry)); test: as above
T2 construct: also called cynomolgus TfR1
T2 chain: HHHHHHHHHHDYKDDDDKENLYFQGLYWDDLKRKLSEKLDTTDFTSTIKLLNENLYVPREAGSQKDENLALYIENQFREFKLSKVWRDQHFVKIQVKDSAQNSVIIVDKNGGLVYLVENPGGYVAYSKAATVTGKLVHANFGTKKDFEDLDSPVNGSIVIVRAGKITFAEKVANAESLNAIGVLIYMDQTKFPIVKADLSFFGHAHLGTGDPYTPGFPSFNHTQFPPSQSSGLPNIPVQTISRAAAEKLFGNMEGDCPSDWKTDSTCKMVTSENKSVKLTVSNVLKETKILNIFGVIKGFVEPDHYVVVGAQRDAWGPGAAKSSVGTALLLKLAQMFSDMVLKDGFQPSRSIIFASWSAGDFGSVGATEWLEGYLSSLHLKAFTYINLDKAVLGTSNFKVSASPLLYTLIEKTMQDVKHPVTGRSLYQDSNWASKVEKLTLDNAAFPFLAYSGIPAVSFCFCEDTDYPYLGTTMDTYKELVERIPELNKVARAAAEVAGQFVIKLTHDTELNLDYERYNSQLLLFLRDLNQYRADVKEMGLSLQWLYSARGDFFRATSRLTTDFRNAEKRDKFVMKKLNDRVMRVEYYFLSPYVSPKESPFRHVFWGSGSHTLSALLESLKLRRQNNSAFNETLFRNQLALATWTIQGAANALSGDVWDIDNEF
Experimental: as §1

AβpE3-40 monomer = molecular target: T3, AβpE3-40 monomer (UniProt P05067 674-711, pyroglutamate at position 3 (N-terminal residue)); test: SPR, antibody immobilised, monomer injected, 1:1 fit
T3 construct: range 3-40 (Aβ numbering); Synthetic peptide (Bachem/Anaspec), verified monomeric by SEC; also called monomeric AβpE3-40

[3] = molecular target: T4, ectodomain of human TfR1 (His10-hTfR1; SEQ ID NO:110) (human, UniProt P02786 89-760); test: BLI: His-tagged Fab loaded from cell supernatant on anti-Fab sensors, hTfR1 ectodomain at 3.75 µg/ml in solution, 300 s association, 300 s dissociation
T4 construct: also called ectodomain of hTfR1
Excerpt: The generated alanine variants were expressed as single mutant, His-tagged Fabs by transient transfection of Chinese hamster ovary cells (ExpiCHO; Thermo Fisher Scientific) according to the manufacturer's instructions. Clarified media, into which the Fabs had been secreted, was used to assess binding to hTfR1 by BLI (Octet RED384, ForteBio). The expressed Fabs were loaded from the cell supernatants onto anti-Fab biosensors during 240 s. Thereafter, association of ectodomain of hTfR1 (SEQ ID NO:110), diluted to 3.75 μg/ml in 1× Kinetics buffer (ForteBio), to the loaded sensors was measured for 300 s, followed by dissociation for 300 s.

T3 sequence (P05067 674-711): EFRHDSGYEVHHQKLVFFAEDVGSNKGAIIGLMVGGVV
T4 sequence (P02786 other isoform, or with tags, fused parts or gaps): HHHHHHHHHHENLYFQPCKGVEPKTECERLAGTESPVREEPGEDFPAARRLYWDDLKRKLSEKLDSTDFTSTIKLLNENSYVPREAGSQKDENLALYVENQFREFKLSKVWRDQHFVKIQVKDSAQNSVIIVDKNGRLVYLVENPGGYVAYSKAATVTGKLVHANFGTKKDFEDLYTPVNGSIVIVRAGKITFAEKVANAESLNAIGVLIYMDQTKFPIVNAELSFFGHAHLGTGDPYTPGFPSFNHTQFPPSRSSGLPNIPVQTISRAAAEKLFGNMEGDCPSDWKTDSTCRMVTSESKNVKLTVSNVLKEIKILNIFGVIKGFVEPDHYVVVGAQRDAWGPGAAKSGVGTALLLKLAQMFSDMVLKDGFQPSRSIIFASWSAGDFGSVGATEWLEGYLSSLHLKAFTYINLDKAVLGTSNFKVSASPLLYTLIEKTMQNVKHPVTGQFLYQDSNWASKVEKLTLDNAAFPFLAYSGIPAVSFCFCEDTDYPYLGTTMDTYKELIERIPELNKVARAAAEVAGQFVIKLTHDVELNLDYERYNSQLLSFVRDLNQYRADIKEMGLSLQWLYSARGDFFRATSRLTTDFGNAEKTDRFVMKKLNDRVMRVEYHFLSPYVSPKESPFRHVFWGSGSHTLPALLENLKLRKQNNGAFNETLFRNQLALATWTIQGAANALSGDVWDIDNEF

Kd [1]: 186 nM | koff [1]: 0.004 s⁻¹ | kon [1]: 22000 M⁻¹ s⁻¹ | Kd [2]: 565 nM | koff [2]: 0.011 s⁻¹ | kon [2]: 19000 M⁻¹ s⁻¹ | Kd (AβpE3-40 monomer): 2.1 nM | koff (AβpE3-40 monomer): 0.00012 s⁻¹ | kon (AβpE3-40 monomer): 54000 M⁻¹ s⁻¹
B1: BA007 (bispecific antibody, human IgG1, kappa)
light: EIVLTQSPLSLSVTLGQSASISCRSSQSLLDSNGKTYLHWFILRPGQSPRRLIYLVSILDSGVPDRFSGSGSGTDFTLKISRVEAEDVGVYYCVQGTHFPFTFGSGTKLEIKRTVAAPSVFIFPPSDEQLKSGTASVVCLLNNFYPREAKVQWKVDNALQSGNSQESVTEQDSKDSTYSLSSTLTLSKADYEKHKVYACEVTHQGLSSPVTKSFNRGEC
heavy 1: not shown
heavy 2: EVQLVQSGAEVVKPGASVRLSCKASGYSFTGFTMNWVRQALGQGLEWMGLINPYNGVTTYNQKFKGRLTMTRDMSTRTVYMDLSSLTYEDTAVYYCTREGNWEGVYWGQGTLVTVSSASTKGPSVFPLAPSSKSTSGGTAALGCLVKDYFPEPVTVSWNSGALTSGVHTFPAVLQSSGLYSLSSVVTVPSSSLGTQTYICNVNHKPSNTKVDKKVEPKSCDKTHTCPPCPAPELLGGPSVFLFPPKPKDTLMISRTPEVTCVVVDVSHEDPEVKFNWYVDGVEVHNAKTKPREEQYNSTYRVVSVLTVLHQDWLNGKEYKCAVSNKALPAPIEKTISKAKGQPREPQVYTLPPCRDELTKNQVSLWCLVKGFYPSDIAVEWESNGQPENNYKTTPPVLDSDGSFFLYSKLTVDKSRWQQGNVFSCSVMHEALHNHYTQKSLSLSPGGGGGSGGGGSGGGGSGGGGSDIQMTQSPSSVSASVGDRVTITCKSSQSLLYSTNQKNYLAWYQQKPGKAPKLLIYWASTRESGVPSRFSGSGSGTDFTLTISSLQPEDFATYYCQQYFIYPRTFGCGTKVEIKGGGGSGGGGSGGGGSGGGGSEVQLVQSGAEVKKPGSSVKVSCKASGYIFTDYNMDWVRQAPGQCLEWIGDINPDADTTSYNEKFKGRATLTVDKSTSTAYMELSSLRSEDSAVYYCARGGYSGSSYYHPMDYWGQGTLVTVKS

Kd [1]: 189 nM | koff [1]: 0.0041 s⁻¹ | kon [1]: 22000 M⁻¹ s⁻¹ | Kd [2]: 552 nM | koff [2]: 0.011 s⁻¹ | kon [2]: 20000 M⁻¹ s⁻¹ | Kd (AβpE3-40 monomer): 2.3 nM | koff (AβpE3-40 monomer): 0.00012 s⁻¹ | kon (AβpE3-40 monomer): 52000 M⁻¹ s⁻¹
B2: BA006 (bispecific antibody, human IgG1, kappa)
light: EIVLTQSPLSLSVTLGQSASISCRSSQSLLDSNGKTYLHWFILRPGQSPRRLIYLVSILDSGVPDRFSGSGSGTDFTLKISRVEAEDVGVYYCVQGTHFPFTFGSGTKLEIKRTVAAPSVFIFPPSDEQLKSGTASVVCLLNNFYPREAKVQWKVDNALQSGNSQESVTEQDSKDSTYSLSSTLTLSKADYEKHKVYACEVTHQGLSSPVTKSFNRGEC
heavy 1: not shown
heavy 2: EVQLVQSGAEVVKPGASVRLSCKASGYSFTGFTMNWVRQALGQGLEWMGLINPYNGVTTYNQKFKGRLTMTRDMSTRTVYMDLSSLTYEDTAVYYCTREGNWEGVYWGQGTLVTVSSASTKGPSVFPLAPSSKSTSGGTAALGCLVKDYFPEPVTVSWNSGALTSGVHTFPAVLQSSGLYSLSSVVTVPSSSLGTQTYICNVNHKPSNTKVDKKVEPKSCDKTHTCPPCPAPELLGGPSVFLFPPKPKDTLMISRTPEVTCVVVDVSHEDPEVKFNWYVDGVEVHNAKTKPREEQYNSTYRVVSVLTVLHQDWLNGKEYKCAVSNKALPAPIEKTISKAKGQPREPQVYTLPPCRDELTKNQVSLWCLVKGFYPSDIAVEWESNGQPENNYKTTPPVLDSDGSFFLYSKLTVDKSRWQQGNVFSCSVMHEALHNHYTQKSLSLSPGGGGGSGGGGSGGGGSGGGGSDIQMTQSPSSVSASVGDRVTITCKSSQSLLYSTNQKNYLAWYQQKPGKAPKLLIYWASTRESGVPSRFSGSGSGTDFTLTISSLQPEDFATYYCQQYFIYPRTFGCGTKVEIKGGGGSGGGGSGGGGSGGGGSEVQLVQSGAEVKKPGSSVKVSCKASGYIFTDYNMDWVRQAPGQCLEWIGDINPDADTTSYNEKFKGRATLTVDKSTSTAYMELSSLRSEDTAVYYCARGGYSGSSYYHPMDYWGQGTLVTVKS

binding result [3]: binds
B3: h26D3 variant HC1 Fab (Fab, V domains shown)
VH: EVQLVQSGAEVKKPGSSVKVSCKASGYIFTAYNMDWVRQAPGQGLEWIGDINPDYDTTSYNEKFKGRATLTVDKSTSTAYMELSSLRSEDTAVYYCARGGYSGSSYYHPMDYWGQGTLVTVSS
VL: DIQMTQSPSSVSASVGDRVTITCKSSQSLLYSTNQKNYLAWYQQKPGKAPKLLIYWASTRESGVPSRFSGSGSGTDFTLTISSLQPEDFATYYCQQYFIYPRTFGQGTKVEIK
notes: Single-mutant His-tagged Fab; also called D31A

binding result [3]: binds
B4: h26D3 variant HC7 Fab (Fab, V domains shown)
VH: EVQLVQSGAEVKKPGSSVKVSCKASGYIFTDYNMDWVRQAPGQGLEWIGDINPDYATTSYNEKFKGRATLTVDKSTSTAYMELSSLRSEDTAVYYCARGGYSGSSYYHPMDYWGQGTLVTVSS
VL: DIQMTQSPSSVSASVGDRVTITCKSSQSLLYSTNQKNYLAWYQQKPGKAPKLLIYWASTRESGVPSRFSGSGSGTDFTLTISSLQPEDFATYYCQQYFIYPRTFGQGTKVEIK
notes: Single-mutant His-tagged Fab; also called D56A

binding result [3]: binds
B5: h26D3 variant HC13 Fab (Fab, V domains shown)
VH: EVQLVQSGAEVKKPGSSVKVSCKASGYIFTDYNMDWVRQAPGQGLEWIGDINPDYDTTSYNEKFKGRATLTVDKSTSTAYMELSSLRSEDTAVYYCARGGYSGSSYYHPMDAWGQGTLVTVSS
VL: DIQMTQSPSSVSASVGDRVTITCKSSQSLLYSTNQKNYLAWYQQKPGKAPKLLIYWASTRESGVPSRFSGSGSGTDFTLTISSLQPEDFATYYCQQYFIYPRTFGQGTKVEIK
notes: Single-mutant His-tagged Fab; also called Y112A

binding result [3]: binds
B6: h26D3 variant HC9 Fab (Fab, V domains shown)
VH: EVQLVQSGAEVKKPGSSVKVSCKASGYIFTDYNMDWVRQAPGQGLEWIGDINPDYDTTSYNEKFKGRATLTVDKSTSTAYMELSSLRSEDTAVYYCARGGASGSSYYHPMDYWGQGTLVTVSS
VL: DIQMTQSPSSVSASVGDRVTITCKSSQSLLYSTNQKNYLAWYQQKPGKAPKLLIYWASTRESGVPSRFSGSGSGTDFTLTISSLQPEDFATYYCQQYFIYPRTFGQGTKVEIK
notes: Single-mutant His-tagged Fab; also called Y101A

binding result [3]: binds
B7: h26D3 variant LC3 Fab (Fab, V domains shown)
VH: EVQLVQSGAEVKKPGSSVKVSCKASGYIFTDYNMDWVRQAPGQGLEWIGDINPDYDTTSYNEKFKGRATLTVDKSTSTAYMELSSLRSEDTAVYYCARGGYSGSSYYHPMDYWGQGTLVTVSS
VL: DIQMTQSPSSVSASVGDRVTITCKSSQSLLYSTNQKNYLAWYQQKPGKAPKLLIAWASTRESGVPSRFSGSGSGTDFTLTISSLQPEDFATYYCQQYFIYPRTFGQGTKVEIK
notes: Single-mutant His-tagged Fab; also called Y55A

binding result [3]: binds
B8: h26D3 variant LC2 Fab (Fab, V domains shown)
VH: EVQLVQSGAEVKKPGSSVKVSCKASGYIFTDYNMDWVRQAPGQGLEWIGDINPDYDTTSYNEKFKGRATLTVDKSTSTAYMELSSLRSEDTAVYYCARGGYSGSSYYHPMDYWGQGTLVTVSS
VL: DIQMTQSPSSVSASVGDRVTITCKSSQSLLYSTNQKNALAWYQQKPGKAPKLLIYWASTRESGVPSRFSGSGSGTDFTLTISSLQPEDFATYYCQQYFIYPRTFGQGTKVEIK
notes: Single-mutant His-tagged Fab; also called Y38A

binding result [3]: binds
B9: h26D3 variant LC4 Fab (Fab, V domains shown)
VH: EVQLVQSGAEVKKPGSSVKVSCKASGYIFTDYNMDWVRQAPGQGLEWIGDINPDYDTTSYNEKFKGRATLTVDKSTSTAYMELSSLRSEDTAVYYCARGGYSGSSYYHPMDYWGQGTLVTVSS
VL: DIQMTQSPSSVSASVGDRVTITCKSSQSLLYSTNQKNYLAWYQQKPGKAPKLLIYAASTRESGVPSRFSGSGSGTDFTLTISSLQPEDFATYYCQQYFIYPRTFGQGTKVEIK
notes: Single-mutant His-tagged Fab; also called W56A

binding result [3]: binds
B10: h26D3 variant HC12 Fab (Fab, V domains shown)
VH: EVQLVQSGAEVKKPGSSVKVSCKASGYIFTDYNMDWVRQAPGQGLEWIGDINPDYDTTSYNEKFKGRATLTVDKSTSTAYMELSSLRSEDTAVYYCARGGYSGSSYYHPMAYWGQGTLVTVSS
VL: DIQMTQSPSSVSASVGDRVTITCKSSQSLLYSTNQKNYLAWYQQKPGKAPKLLIYWASTRESGVPSRFSGSGSGTDFTLTISSLQPEDFATYYCQQYFIYPRTFGQGTKVEIK
notes: Single-mutant His-tagged Fab; also called D111A
